No end group written: not given here.
Legend:
Assay in all cases: phage ELISA
avidin = biological target: T1, avidin (UniProt P02701 25-152)
T1 construct: Negative control target
Method: (§1) Wells of a 96-well microplate (Nunc, Maxisorp) were either coated with human Fc fragment solution or streptavidin as negative control. The wells were blocked with BSA and contacted with amplified population of each individual clone. Bound phages were detected by the addition of horseradish peroxidase (HRP)-conjugated anti-M13 monoclonal antibodies using the chromogenic substrate (3,3′,5,5′-tetramethylbenzidine (TMB)) solution, and absorbance at 450 nm was measured.
(§2) The binding activity of phage clone displaying the minimized peptide SEQ ID NO: 2, was further evaluated by phage ELISA (as described above) using different subclasses of native human IgGs and different therapeutic monoclonal antibodies. BSA, avidin and SA were used as targets in negative control wells.

streptavidin = biological target: T2, streptavidin (UniProt P22629 37-163, limits assumed)
T2 construct: Negative control target; also called SA
T2 sequence (P22629 37-163 limits assumed): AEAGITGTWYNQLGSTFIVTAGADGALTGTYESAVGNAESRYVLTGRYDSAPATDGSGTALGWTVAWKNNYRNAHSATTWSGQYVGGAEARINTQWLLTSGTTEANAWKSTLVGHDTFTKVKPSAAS
Method: as §1, §2

BSA = biological target: T3, BSA (UniProt P02769 25-607)
T3 construct: Negative control target; also called bovine serum albumin
T3 sequence (P02769 25-607 limits assumed): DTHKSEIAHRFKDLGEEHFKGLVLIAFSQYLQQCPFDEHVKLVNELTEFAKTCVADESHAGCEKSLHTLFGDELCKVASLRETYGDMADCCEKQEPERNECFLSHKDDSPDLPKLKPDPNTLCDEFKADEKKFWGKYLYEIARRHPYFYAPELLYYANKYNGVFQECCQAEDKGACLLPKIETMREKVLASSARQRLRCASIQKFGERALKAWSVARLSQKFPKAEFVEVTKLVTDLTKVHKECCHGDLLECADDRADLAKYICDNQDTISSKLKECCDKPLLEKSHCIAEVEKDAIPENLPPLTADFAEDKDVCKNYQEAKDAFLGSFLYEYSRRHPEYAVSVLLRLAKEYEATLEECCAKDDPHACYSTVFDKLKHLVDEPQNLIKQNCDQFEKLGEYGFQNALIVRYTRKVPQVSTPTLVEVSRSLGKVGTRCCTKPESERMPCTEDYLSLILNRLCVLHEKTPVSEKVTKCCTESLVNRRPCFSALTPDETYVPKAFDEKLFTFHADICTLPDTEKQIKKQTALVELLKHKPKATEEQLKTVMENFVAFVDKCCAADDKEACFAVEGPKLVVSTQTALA
Method: as §1, §2

Measured: binding result

T1 sequence (P02701 25-152 limits assumed): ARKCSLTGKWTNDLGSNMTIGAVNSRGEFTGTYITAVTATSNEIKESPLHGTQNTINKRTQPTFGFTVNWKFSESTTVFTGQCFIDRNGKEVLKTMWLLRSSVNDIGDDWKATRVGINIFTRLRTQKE

B1: phage clone displaying the minimized peptide SEQ ID NO: 2 (peptide, not shown: large carriers)
peptide: GSYWYQVWF
modifications: also: displayed on phage as P3 coat protein fusion, fusion limits and linker not given here
no binding: all assays above
